US20240207421A1, “NERVE TARGETING PEPTIDES AND METHODS OF USE” (ALUME BIOSCIENCES, INC., priority 2020, published 2024)

Legend:
[1] = target: Human Myelin Basic Protein (Homo sapiens, UniProt P02686); assay: Phage display library screening (Example 2, Python script analysis), binding to Human Myelin Basic Protein; design: Enzo 200-606-M001 from human; purchased Enzo 200-606-M001; host or cells: human brain (tissue-derived); conditions: R3 Myelin Basic Protein; combined unique sequence count, Python/R script analysis
Method: Phage display library screens were used to identify peptides that bind to target proteins (including specific laminin trimers) that are expressed in human nerves, as described in Table 3. These screens were also carried out to identify peptides that could bind selectively to nerves versus muscle. Such peptides could therefore be useful for systemic in-vivo labeling of nerves during fluorescence assisted surgery. Specifically, m 13 phage libraries expressing 7 or 12 random amino acid peptides, or a cyclic peptide CX7C, on the N-terminus of the minor coat protein pIII (New England Biolabs; NEB) were processed through multiple rounds of selection for binding to target proteins expressed in nerves, or to excised human nerves, nerve extracts, or muscle, as described further below.
For screening against the specified target proteins in Table 1, including LN211, LN411, LN421, and LN521, the phage library was processed by up to 4 binding and wash cycles. For selection, phage libraries were incubated for up to 24 hours at 4° C. in 96 well plates that had been coated with one of the target proteins. Plates were then washed with PBS and phage were eluted using 0.2M glycine pH 2.0. Phage supernatants where then neutralized with Tris pH 9.0 prior to plating on TGI bacteria and LB agar plates. Colonies were counted to determine titer followed by DNA preparation of pools of phage and NextGen sequencing. After rounds of selection, phage were pooled and amplified for iterative selection. Phage that were bound at each round were sequenced. NextGen sequencing of pools after 2, 3 and 4 rounds of selection was used to isolate candidate sequences that were analyzed further to identify those that specifically bound each unique target protein.
Python Script Analysis: For all NEB sequence datasets, a python script was used to translate, trim, and filter the peptide sequences. The script translated the nucleotide sequences, translating amber codons as glutamine in peptide sequences, and then trimmed the end sequences that come from the vector. Secondly, the script combined the unique counts of trimmed peptides with identical sequences. […] Another python script was used to group peptides from different assays according to protein target (Myelin Protein Zero, Myelin Proteolipid Protein, Myelin Basic Protein, and Nidogen-2) and also combine the unique sequence counts for each peptide. An R script was written to merge the peptide sequences from different data files and determine peptides specific for each protein target but absent from different protein binding datasets. Peptide sequences were ranked by unique sequence count.

Laminin 421/521 = assay: phage display, NGS count

Chain of Human Myelin Basic Protein (P02686 134-304): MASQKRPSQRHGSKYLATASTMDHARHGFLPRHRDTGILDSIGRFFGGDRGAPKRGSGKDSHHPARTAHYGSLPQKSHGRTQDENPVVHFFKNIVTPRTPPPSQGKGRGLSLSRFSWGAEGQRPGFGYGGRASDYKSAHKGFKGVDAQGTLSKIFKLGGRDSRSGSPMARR

Row | Molecule | Count [1] | Count (Laminin 421/521)
1 | KNSIAPR (R3 Myelin Basic Protein-binding peptide) | 8 | –
2 | FQLSYET (R3 Myelin Basic Protein-binding peptide) | 6 | –
3 | YVNRVKQ (R3 Myelin Basic Protein-binding peptide) | 6 | –
4 | AIPPRKL (R3 Myelin Basic Protein-binding peptide) | 6 | –
5 | KMSLAPP (R3 Myelin Basic Protein-binding peptide) | 6 | –
6 | RVIPSTT (R3 Myelin Basic Protein-binding peptide) | 6 | –
7 | NTPKVLA (R3 Myelin Basic Protein-binding peptide) | 10 | –
8 | WTYHPTT (R3 Myelin Basic Protein-binding peptide) | 6 | –
9 | IPIPYRT (R3 Myelin Basic Protein-binding peptide) | 6 | –
10 | LPPQISR (R3 Myelin Basic Protein-binding peptide) | 8 | –
11 | SYVTVFR (R3 Myelin Basic Protein-binding peptide) | 6 | –
12 | THKHMMT (R3 Myelin Basic Protein-binding peptide) | 6 | –
13 | HTGLRSL (R3 Myelin Basic Protein-binding peptide) | 7 | –
14 | YPTYLSY (R3 Myelin Basic Protein-binding peptide) | 6 | –
15 | GEPALVT (R3 Myelin Basic Protein-binding peptide) | 6 | –
16 | GRHTDVV (R3 Myelin Basic Protein-binding peptide) | 6 | –
17 | FDLLARK (R3 Myelin Basic Protein-binding peptide) | 6 | –
18 | TPVRLNT (R3 Myelin Basic Protein-binding peptide) | 6 | –
19 | HAHWARL (R3 Myelin Basic Protein-binding peptide) | 6 | –
20 | AAGQRSF (R3 Myelin Basic Protein-binding peptide) | 7 | –
21 | ANLSRSV (R3 Myelin Basic Protein-binding peptide) | 9 | –
22 | SPPRFIP (R3 Myelin Basic Protein-binding peptide) | 8 | –
23 | ALYNQMT (R3 Myelin Basic Protein-binding peptide) | 6 | –
24 | IGTRWHQ (R3 Myelin Basic Protein-binding peptide) | 6 | –
25 | SIRMTEI (R3 Myelin Basic Protein-binding peptide) | 7 | –
26 | KIITTKS (R3 Myelin Basic Protein-binding peptide) | 6 | –
27 | SYRSMAP (R3 Myelin Basic Protein-binding peptide) | 6 | –

Row | Molecule | Count [1] | Count (Laminin 421/521)
28 | ALRDTRV (R3 Myelin Basic Protein-binding peptide) | 6 | –
29 | HPDTLPQ (R3 Myelin Basic Protein-binding peptide) | 7 | –
30 | AGSLLSL (R3 Myelin Basic Protein-binding peptide) | 6 | –
31 | SNAHTLP (R3 Myelin Basic Protein-binding peptide) | 6 | –
32 | SAVLMPP (R3 Myelin Basic Protein-binding peptide) | 6 | –
33 | RGHPSQL (R3 Myelin Basic Protein-binding peptide) | 6 | –
34 | AILTRPP (R3 Myelin Basic Protein-binding peptide) | 7 | –
35 | MQRLGAD (R3 Myelin Basic Protein-binding peptide) | 6 | –
36 | LVPPVNH (R3 Myelin Basic Protein-binding peptide) | 6 | –
37 | KGQPLFR (R3 Myelin Basic Protein-binding peptide) | 7 | –
38 | LMLPQLE (R3 Myelin Basic Protein-binding peptide) | 6 | –
39 | GPITHAI (R3 Myelin Basic Protein-binding peptide) | 7 | –
40 | QTSIMSG (R3 Myelin Basic Protein-binding peptide) | 6 | –
41 | QQAHLQS (R3 Myelin Basic Protein-binding peptide) | 8 | –
42 | SLRSVGA (R3 Myelin Basic Protein-binding peptide) | 7 | –
43 | SEGLTLL (R3 Myelin Basic Protein-binding peptide) | 6 | –
44 | MPLLELP (R3 Myelin Basic Protein-binding peptide) | 7 | –
45 | HPWSHPN (R3 Myelin Basic Protein-binding peptide) | 6 | –
46 | HPTGTPT (R3 Myelin Basic Protein-binding peptide) | 7 | –
47 | QNSYLSN (R3 Myelin Basic Protein-binding peptide) | 8 | –
48 | QGAYVRP (R3 Myelin Basic Protein-binding peptide) | 6 | –
49 | VGTFWTR (R3 Myelin Basic Protein-binding peptide) | 6 | –
50 | SYTLSRS (R3 Myelin Basic Protein-binding peptide) | 7 | –
51 | FVLPNKN (R3 Myelin Basic Protein-binding peptide) | 8 | –
52 | GQWWKML (R3 Myelin Basic Protein-binding peptide) | 6 | –
53 | YTASPRW (R3 Myelin Basic Protein-binding peptide) | 6 | –
54 | HPWLGNR (R3 Myelin Basic Protein-binding peptide) | 9 | –

Row | Molecule | Count [1] | Count (Laminin 421/521)
55 | LELHQNV (R3 Myelin Basic Protein-binding peptide) | 6 | –
56 | ELKSLRF (R3 Myelin Basic Protein-binding peptide) | 6 | –
57 | QKALPQT (R3 Myelin Basic Protein-binding peptide) | 6 | –
58 | LQSNAADHHQGM | – | 75
59 | ATSKYPNSWAQT | – | 80
60 | DRLTPITWDWSR | – | 86
61 | WTKHNTPAHHLS | – | 89
62 | HASNQRV | – | 93
63 | GRTIHSM | – | 95
64 | RLVTASMVSPSF | – | 95
65 | DGQVSDHSYVQW | – | 101
66 | KISMNRLHANFT | – | 110
67 | WDLPTLRKTKQA | – | 114
68 | WVAAERR | – | 115
69 | MTHSAHNSQKTN | – | 117
70 | WGLKLPH | – | 117
71 | QGWFRHS | – | 121
72 | IPVGERK | – | 124
73 | CMNKIQRDC | – | 131
74 | KALGYSLVGGEW | – | 134
75 | APKVTNARPTQL | – | 147
76 | CSKHNHSRC | – | 295
77 | GKPDHRLVSLWR | – | 309
78 | CSHHKLKQC | – | 359
79 | GGYDLPWANWQN | – | 497
